Patent US20260130997A1 (BEAM THERAPEUTICS, published 2026)

Legend:
Test in all cases: binding to mutant CD45 D1-D2 protein relative to WT CD45 D1-D2; method not given
[1] = biological target: T1, mutant CD45 D1-D2 protein T264A (Homo sapiens, UniProt P08575 225-394, limits assumed)
T1 chain: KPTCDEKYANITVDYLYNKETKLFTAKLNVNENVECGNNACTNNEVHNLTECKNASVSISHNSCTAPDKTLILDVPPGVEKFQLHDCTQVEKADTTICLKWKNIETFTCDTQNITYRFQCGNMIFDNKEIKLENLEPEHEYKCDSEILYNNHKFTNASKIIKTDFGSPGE

[2] = biological target: T2, mutant CD45 D1-D2 protein N263G, T264A (Homo sapiens, UniProt P08575 225-394, limits assumed)
T2 chain: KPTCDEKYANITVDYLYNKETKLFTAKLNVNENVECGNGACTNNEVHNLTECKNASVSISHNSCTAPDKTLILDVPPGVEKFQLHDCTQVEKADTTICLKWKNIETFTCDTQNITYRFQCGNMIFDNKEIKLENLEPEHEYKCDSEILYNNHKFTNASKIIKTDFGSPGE

[3] = biological target: T3, mutant CD45 D1-D2 protein N286G (Homo sapiens, UniProt P08575 225-394, limits assumed)
T3 chain: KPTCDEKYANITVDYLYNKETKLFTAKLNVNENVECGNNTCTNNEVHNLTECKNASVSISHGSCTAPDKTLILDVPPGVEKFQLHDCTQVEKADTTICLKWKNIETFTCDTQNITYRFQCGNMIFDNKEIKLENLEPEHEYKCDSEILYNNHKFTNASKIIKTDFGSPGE

[4] = biological target: T4, mutant CD45 D1-D2 protein E259G, N262D (Homo sapiens, UniProt P08575 225-394, limits assumed)
T4 chain: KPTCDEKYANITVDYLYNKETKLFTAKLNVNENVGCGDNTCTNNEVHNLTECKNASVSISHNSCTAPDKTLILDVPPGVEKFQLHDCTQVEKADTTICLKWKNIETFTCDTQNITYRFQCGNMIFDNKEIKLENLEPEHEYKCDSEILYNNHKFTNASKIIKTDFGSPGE

[5] = biological target: T5, mutant CD45 D1-D2 protein T266A (Homo sapiens, UniProt P08575 225-394, limits assumed)
T5 chain: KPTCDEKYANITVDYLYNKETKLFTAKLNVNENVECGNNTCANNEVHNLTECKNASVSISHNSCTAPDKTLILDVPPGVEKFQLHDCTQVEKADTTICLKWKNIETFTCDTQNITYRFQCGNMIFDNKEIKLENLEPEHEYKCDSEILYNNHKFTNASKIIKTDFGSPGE

[6] = biological target: T6, mutant CD45 D1-D2 protein I283M, H285R, N286G (Homo sapiens, UniProt P08575 225-394, limits assumed)
T6 chain: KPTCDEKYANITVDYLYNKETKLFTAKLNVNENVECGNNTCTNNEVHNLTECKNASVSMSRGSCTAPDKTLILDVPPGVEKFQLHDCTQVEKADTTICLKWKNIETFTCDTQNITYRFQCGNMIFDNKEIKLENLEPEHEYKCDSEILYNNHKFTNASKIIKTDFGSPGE

[7] = biological target: T7, mutant CD45 D1-D2 protein I283M (Homo sapiens, UniProt P08575 225-394, limits assumed)
T7 chain: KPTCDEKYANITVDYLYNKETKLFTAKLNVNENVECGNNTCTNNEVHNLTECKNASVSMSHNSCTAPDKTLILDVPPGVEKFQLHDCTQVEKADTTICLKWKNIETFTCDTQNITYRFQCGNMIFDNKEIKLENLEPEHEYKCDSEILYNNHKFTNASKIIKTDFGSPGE

[8] = biological target: T8, mutant CD45 D1-D2 protein N263S, T264A, T266A (Homo sapiens, UniProt P08575 225-394, limits assumed)
T8 chain: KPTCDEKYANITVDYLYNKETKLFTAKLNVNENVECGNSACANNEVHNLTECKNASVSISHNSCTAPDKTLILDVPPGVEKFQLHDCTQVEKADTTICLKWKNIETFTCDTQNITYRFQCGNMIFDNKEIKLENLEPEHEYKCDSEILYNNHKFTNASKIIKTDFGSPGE

[9] = biological target: T9, mutant CD45 D1-D2 protein E259G (Homo sapiens, UniProt P08575 225-394, limits assumed)
T9 chain: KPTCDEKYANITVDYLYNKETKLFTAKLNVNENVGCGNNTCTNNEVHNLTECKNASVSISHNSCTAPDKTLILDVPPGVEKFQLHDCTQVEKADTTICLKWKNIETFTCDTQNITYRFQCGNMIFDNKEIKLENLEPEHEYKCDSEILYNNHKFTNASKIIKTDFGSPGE

[10] = biological target: T10, mutant CD45 D1-D2 protein N257G (Homo sapiens, UniProt P08575 225-394, limits assumed)
T10 chain: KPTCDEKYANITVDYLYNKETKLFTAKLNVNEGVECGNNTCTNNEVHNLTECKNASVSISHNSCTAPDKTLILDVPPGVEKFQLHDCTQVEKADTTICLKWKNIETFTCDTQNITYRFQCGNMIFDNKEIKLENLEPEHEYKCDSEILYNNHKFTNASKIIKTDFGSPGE

B1: mAb U139AGL030-9 (mAb030-9) (antibody, mouse IgG1, kappa, V domains shown)
VH: EVKLLESGGGLVQPGGSLKLSCAASGFDFSRYWMSWVRQAPGKGLEWIGEINPTSSTINFTPSLKDKVFISRDNAKNTLYLQMSKVRSEDTALYYCARGNYYRYGDAMDYWGQGTSVTVSS
VL: DIALTQSPASLAVSLGQRATISCRASKSVSTSGYSYLHWYQQKPGQPPKLLIYLASNLESGVPARFSGSGSGTDFTLNIHPVEEEDAATYYCQHSRELPFTFGSGTKLEIKR
notes: In the biosensor assay the antibody was captured with Anti-Human IgG Fc Capture (AHC); also called mAb30-9; mAb039-9
- % Mutant Binding [1]: 112%
- % Mutant Binding [2]: 106%
- % Mutant Binding [3]: 81.5%
- % Mutant Binding [4]: 2.3%
- % Mutant Binding [5]: 73.4%
- % Mutant Binding [6]: 0.7%
- % Mutant Binding [7]: 12.9%
- % Mutant Binding [8]: 69.3%
- % Mutant Binding [9]: 2.7%
- % Mutant Binding [10]: 1.7%
